Patent publication US20190284258A1, “HAEMADIPSA SYLVESTRIS ANTITHROMBOTIC PEPTIDE SYLVESTIN AND USE THEREOF” (priority 2016, published 2019)

Target: FXIIa
Experiment: enzyme inhibition kinetics, chromogenic substrate, OD 405 nm

Sequence of FXIIa (P00748 20-372, chain 1 of 2): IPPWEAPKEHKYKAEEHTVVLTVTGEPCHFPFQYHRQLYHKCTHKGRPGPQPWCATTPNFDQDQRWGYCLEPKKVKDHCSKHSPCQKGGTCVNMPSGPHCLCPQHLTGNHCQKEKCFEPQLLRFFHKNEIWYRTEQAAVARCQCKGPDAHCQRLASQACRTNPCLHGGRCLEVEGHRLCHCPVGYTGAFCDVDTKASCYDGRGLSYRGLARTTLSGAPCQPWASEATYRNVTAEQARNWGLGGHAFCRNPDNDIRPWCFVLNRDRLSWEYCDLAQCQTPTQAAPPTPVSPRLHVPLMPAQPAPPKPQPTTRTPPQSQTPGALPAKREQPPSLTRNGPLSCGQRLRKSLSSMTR
Sequence of FXIIa (P00748 373-615, chain 2 of 2): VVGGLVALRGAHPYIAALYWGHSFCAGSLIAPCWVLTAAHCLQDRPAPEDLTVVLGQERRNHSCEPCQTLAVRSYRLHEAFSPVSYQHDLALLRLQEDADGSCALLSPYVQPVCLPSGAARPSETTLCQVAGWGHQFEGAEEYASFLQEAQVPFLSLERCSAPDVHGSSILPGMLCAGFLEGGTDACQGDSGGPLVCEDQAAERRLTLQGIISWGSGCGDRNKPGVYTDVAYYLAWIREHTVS

Haemadipsa sylvestris antithrombotic peptide Sylvestin
Ki: 2.9 µM
